Results on two molecules are retold here after patent publication US20200317768A1 (published 2020).

The target in test [1] is T1, cynomolgus monkey FcγRIIa1 extracellular domain, C-terminal His-tag (cynomolgus monkey).
T1 construct: also called cyno FcγRIIa1; cynoFcgRIIa1; not shown: His-tag added to C-terminus
T1 chain: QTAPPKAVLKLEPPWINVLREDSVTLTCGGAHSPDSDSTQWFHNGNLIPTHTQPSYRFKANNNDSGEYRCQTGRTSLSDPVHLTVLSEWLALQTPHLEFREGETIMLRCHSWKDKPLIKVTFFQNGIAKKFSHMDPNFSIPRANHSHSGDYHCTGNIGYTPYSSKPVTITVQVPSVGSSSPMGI
Put plainly: SPR (BIACORE); KD of parent SG1 / KD of variant. (In SPR one partner is held on a chip, and binding of the other changes the refractive index at the surface.)

Test [2] concerns the target T2, cynomolgus monkey FcγRIIa2 extracellular domain, C-terminal His-tag (cynomolgus monkey).
T2 construct: also called cyno FcγRIIa2; cynoFcgRIIa2; not shown: His-tag added to C-terminus
T2 chain: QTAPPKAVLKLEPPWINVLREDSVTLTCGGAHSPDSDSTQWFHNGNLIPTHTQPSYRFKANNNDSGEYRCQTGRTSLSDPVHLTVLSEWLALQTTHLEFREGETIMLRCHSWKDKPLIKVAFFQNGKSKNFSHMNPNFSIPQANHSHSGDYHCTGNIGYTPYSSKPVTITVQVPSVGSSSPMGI
Put plainly: SPR (BIACORE); KD of parent SG1 / KD of variant.

Test [3] concerns the target T3, cynomolgus monkey FcγRIIIaS extracellular domain, C-terminal His-tag (cynomolgus monkey, UniProt A3RFZ7 21-206 (rhesus entry)).
T3 construct: also called cyno FcγRIIIaS; cynoFcγRIIIaS; not shown: His-tag added to C-terminus
Nature of the test: SPR (BIACORE); KD of parent SG1 / KD of variant.

The target in test [4] is T4, human FcγRIIaR extracellular domain, C-terminal His-tag (human, UniProt P12318 34-217).
T4 construct: also called human FcγRIIa (type R); FcgRIIaR; not shown: His-tag added to C-terminus
T4 chain: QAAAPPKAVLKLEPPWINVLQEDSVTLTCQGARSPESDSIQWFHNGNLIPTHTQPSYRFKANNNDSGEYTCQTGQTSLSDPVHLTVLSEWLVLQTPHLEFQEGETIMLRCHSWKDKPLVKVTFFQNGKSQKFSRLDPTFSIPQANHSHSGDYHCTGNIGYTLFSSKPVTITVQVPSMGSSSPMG
Nature of the test: SPR (BIACORE); KD of parent SG1 / KD of variant.

Test [5] concerns the target T5, human FcγRIIb extracellular domain, C-terminal His-tag (human, UniProt P31994 43-217).
T5 construct: also called humanFcgRIIb; not shown: His-tag added to C-terminus
T5 sequence: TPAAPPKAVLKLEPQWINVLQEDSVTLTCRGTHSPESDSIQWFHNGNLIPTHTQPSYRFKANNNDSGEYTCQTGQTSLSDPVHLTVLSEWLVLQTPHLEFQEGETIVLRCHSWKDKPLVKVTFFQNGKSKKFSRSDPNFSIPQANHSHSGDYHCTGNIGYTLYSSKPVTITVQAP
Put plainly: SPR (BIACORE); KD of parent SG1 / KD of variant.

For test [6], the target named is T6, cynomolgus monkey FcγRIIa3 extracellular domain, C-terminal His-tag (cynomolgus monkey).
T6 construct: also called cyno FcγRIIa3; cynoFcgRIIa3; not shown: His-tag added to C-terminus
T6 chain: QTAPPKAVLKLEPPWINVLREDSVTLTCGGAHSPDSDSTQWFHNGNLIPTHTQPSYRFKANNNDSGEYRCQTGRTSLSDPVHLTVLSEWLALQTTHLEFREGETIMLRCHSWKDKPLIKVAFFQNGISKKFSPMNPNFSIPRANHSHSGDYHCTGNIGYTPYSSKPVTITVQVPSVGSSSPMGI
Put plainly: SPR (BIACORE); KD of SG1 / KD of variant.

In test [7] the target is T2, cynomolgus monkey FcγRIIa2 …. Nature of the test: SPR (BIACORE); KD of SG1 / KD of variant.
Test [8] addresses T3, cynomolgus monkey FcγRIIIaS …. Put plainly: SPR (BIACORE); KD of SG1 / KD of variant.
The target of test [9] is T7, human FcγRIIIaV extracellular domain, C-terminal His-tag (human, UniProt P08637 17-208).
T7 construct: also called FcgRIIIaV; not shown: His-tag added to C-terminus
T7 sequence (P08637 17-208 F176V): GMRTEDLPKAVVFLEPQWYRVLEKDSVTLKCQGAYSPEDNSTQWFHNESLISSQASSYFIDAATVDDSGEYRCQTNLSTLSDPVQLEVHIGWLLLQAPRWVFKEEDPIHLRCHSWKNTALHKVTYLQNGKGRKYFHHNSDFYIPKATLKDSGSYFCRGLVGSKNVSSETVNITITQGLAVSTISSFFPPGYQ
Nature of the test: SPR (BIACORE); KD of SG1 / KD of variant.

Test [10] concerns the target T8, cynomolgus monkey FcγRIIb extracellular domain, C-terminal His-tag (cynomolgus monkey).
T8 construct: also called cyno FcγRIIb; cynoFcγRIIb; not shown: His-tag added to C-terminus
T8 chain: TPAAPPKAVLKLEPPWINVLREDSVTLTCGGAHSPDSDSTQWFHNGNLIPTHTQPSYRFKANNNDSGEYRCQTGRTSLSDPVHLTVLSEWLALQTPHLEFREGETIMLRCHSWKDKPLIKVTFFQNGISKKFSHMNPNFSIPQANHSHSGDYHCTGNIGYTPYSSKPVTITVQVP
Put plainly: SPR (BIACORE); KD of SG1 / KD of variant.
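Also: relative to parent M103205H795-SG1 carrying the SG1 human heavy chain constant region.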

T3 sequence (A3RFZ7 21-206): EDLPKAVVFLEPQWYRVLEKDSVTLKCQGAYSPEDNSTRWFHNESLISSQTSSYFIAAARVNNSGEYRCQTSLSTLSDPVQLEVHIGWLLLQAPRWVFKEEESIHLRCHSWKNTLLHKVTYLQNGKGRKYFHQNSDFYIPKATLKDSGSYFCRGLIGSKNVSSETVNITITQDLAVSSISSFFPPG

B1: MS_M103205H795-SG1/M103202L889-SK1 (antibody, human IgG1, kappa)
heavy: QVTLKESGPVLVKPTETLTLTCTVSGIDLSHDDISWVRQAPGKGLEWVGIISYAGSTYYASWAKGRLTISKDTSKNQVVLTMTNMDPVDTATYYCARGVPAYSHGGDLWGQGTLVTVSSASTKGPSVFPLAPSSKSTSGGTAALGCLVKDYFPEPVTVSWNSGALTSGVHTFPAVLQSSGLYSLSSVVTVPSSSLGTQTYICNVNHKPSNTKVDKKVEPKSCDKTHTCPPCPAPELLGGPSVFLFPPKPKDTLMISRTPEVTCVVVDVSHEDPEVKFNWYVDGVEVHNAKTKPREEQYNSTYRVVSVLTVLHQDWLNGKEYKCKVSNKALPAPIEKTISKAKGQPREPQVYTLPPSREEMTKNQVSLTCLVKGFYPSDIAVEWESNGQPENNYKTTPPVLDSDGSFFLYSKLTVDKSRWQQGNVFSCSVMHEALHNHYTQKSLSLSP
light: DIVMTQSPATLSLSPGERATLSCTSSQSVYHANWLSWFQQKPGQPPKLLIYWASTLAYGVPSRFSGSGSGTDFTLTISSLQPEDAATYYCAGGYGGGRYAFGQGTKVEIKRTVAAPSVFIFPPSDEQLKSGTASVVCLLNNFYPREAKVQWKVDNALQSGNSQESVTEQDSKDSTYSLSSTLTLSKADYEKHKVYACEVTHQGLSSPVTKSFNRGEC
notes: Parent antibody with SG1 human heavy chain constant region; also called MS1032LO06-SG1
Consider B1, for which the “KD fold (SG1 = 1)” value in [1], in test [2], in test [3], in [4], in test [5] and in test [6] was 1 fold throughout. Further, the “KD fold (SG1 = 1)” value in test [7], in test [8], in [9] and in [10] was 1 fold throughout.

B2: M103205H795-PK2 / M103202L889-SK1 (antibody, human IgG1, kappa)
heavy: QVTLKESGPVLVKPTETLTLTCTVSGIDLSHDDISWVRQAPGKGLEWVGIISYAGSTYYASWAKGRLTISKDTSKNQVVLTMTNMDPVDTATYYCARGVPAYSHGGDLWGQGTLVTVSSASTKGPSVFPLAPSSKSTSGGTAALGCLVKDYFPEPVTVSWNSGALTSGVHTFPAVLQSSGLYSLSSVVTVPSSSLGTQTYICNVNHKPSNTKVDKKVEPKSCDKTHTCPPCPAPELLNGPSVFLFPPKPKDTLMISRTPEVTCVVVDVSEEDPEVKFNWYVDGVEVHNAKTKPREEQYNSTYRVVSVLTVLHQDWLNGKEYKCKVSNKALPKPIEKTISKAKGQPREPQVYTLPPSREEMTKNQVSLTCLVKGFYPSDIAVEWESNGQPENNYKTTPMVLDRDGSFFLYSKLTVKKSRWQQGNVFSCSVMHEALHNHYTQKSLSLSP
light: DIVMTQSPATLSLSPGERATLSCTSSQSVYHANWLSWFQQKPGQPPKLLIYWASTLAYGVPSRFSGSGSGTDFTLTISSLQPEDAATYYCAGGYGGGRYAFGQGTKVEIKRTVAAPSVFIFPPSDEQLKSGTASVVCLLNNFYPREAKVQWKVDNALQSGNSQESVTEQDSKDSTYSLSSTLTLSKADYEKHKVYACEVTHQGLSSPVTKSFNRGEC
notes: CH with G236N/H268E/A330K/P396M/S400R/D413K against SG1 (EU numbering); also called MS1032LO06-PK2; MS103205H795-PK2
For the molecule B2, the “KD fold (SG1 = 1)” value in [6] was found to be 4.5 fold; in test [7], 3.9 fold; in [8], 0.09 fold; in test [9] it was 0.06 fold; in test [10], 4.7 fold.
